The results in this text go back to patent US20240294622A1 (SUZHOU TRANSCENTA THERAPEUTICS, published 2024).

First the molecules themselves.
T1: Mouse Gremlin-His (R&D) (mouse, UniProt O70326 25-184)
T1 construct: Lys25-Asp184 with 10xHis, R&D 956-GR; also called mouse gremlin (R&D); mGREM1
T1 sequence: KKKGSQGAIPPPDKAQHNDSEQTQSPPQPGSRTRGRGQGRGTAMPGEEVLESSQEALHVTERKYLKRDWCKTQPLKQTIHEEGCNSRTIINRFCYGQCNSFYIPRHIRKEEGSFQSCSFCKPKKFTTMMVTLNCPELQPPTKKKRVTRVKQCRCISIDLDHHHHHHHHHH

T2: HGREM1-His (ACRO) (human, UniProt O60565 25-184)
T2 construct: Lys25-Asp184 of NP_037504 with C-terminal polyhistidine tag (ACRO GR1-H52H3); they are put here; also called hGREM1 (ACRO); human gremlin (ACRO)
T2 sequence: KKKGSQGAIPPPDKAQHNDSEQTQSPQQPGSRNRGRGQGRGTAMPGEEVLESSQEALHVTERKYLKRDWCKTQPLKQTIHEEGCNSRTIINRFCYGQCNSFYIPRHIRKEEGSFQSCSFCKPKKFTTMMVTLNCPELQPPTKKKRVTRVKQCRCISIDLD

B1: 56C11 (antibody, V domains shown)
VH: EVQLQQSGPELVKPGASVKISCKASGYTFTDFYMNWVKQSHGKSLEWIGDINPNNGGTSYNQKFKGKATLTVDKSSSTAYMELRSLTSEDSAVYYCARDPIYYDYDEVAYWGQGTLVTVSA
VL: DVVMTQTPLSLPVSLGDQASISCRSSQSLVHSNGNTYLHWYLQKPGQSPKLLIYKVSNRFSGVPDRFSGSGSGTDFTLKISRVEAEDLGVYFCSQSTHVPLTFGAGTKLELK
notes: mouse hybridoma antibody; also called hybridoma 56C11
B2: Hu14E3_HbLa (antibody, IgG1, V domains shown)
VH: QIQLVQSGSELKKPGASVKVSCKASGYTFTTYGMAWMRQAPGQGLEWMGWINTLSGEPTYADDFKGRFAFSLDTSVSTAYLQISSLKAEDTAVYYCAREPMDYWGQGTMVTVSS
VL: DVVMTQSPLSLPVTLGQPASISCKSSQSLLDSDGKTYLSWLQQRPGQSPRRLIYLVSKLDSGVPDRFSGSGSGTDFTLKISRVEAEDVGVYYCWQGAHFPLTFGQGTKLEIK
notes: humanized
B3: Hu22F1_HcLa (antibody, V domains shown)
VH: QAQLVQSGAEVKKPGASVKVSCKASGYSFTDYYMNWVRQAPGQGLEWMGDINPKDGDSGYSHKFKGRVTLTVDKSTSTVYMELRSLRSEDTAVYYCASGFTTVVARGDYWGQGTTVTVSS
VL: DVVMTQSPLSLPVTLGQPASISCKSSQSLLDSDGKTYLNWLQQRPGQSPRRLIYLVSKLDSGVPDRFSGSGSGTDFTLKISRVEAEDVGVYYCWQGTHFPYTFGGGTKVEIK
B4: Hu14E3_HcLb (antibody, IgG1, V domains shown)
VH: QIQLVQSGSELKKPGASVKVSCKASGSTFTTYGMAWMKQAPGQGLTWMGWINTLSGEPTYADDFKGRFAFSLDTSVSTAYLQISSLKAEDTAVYYCAREPMDYWGQGTMVTVSS
VL: DVVMTQSPLSLPVTLGQPASISCKSSQSLLDSDGKTYLSWLQQRPGQSPRRLISLVSKLDSGVPDRFSGSGSGTDFTLKISRVEAEDVGVYYCWQGAHFPLTFGQGTKLEIK
notes: humanized
B5: Hu14E3_HcLa (antibody, IgG1, V domains shown)
VH: QIQLVQSGSELKKPGASVKVSCKASGSTFTTYGMAWMKQAPGQGLTWMGWINTLSGEPTYADDFKGRFAFSLDTSVSTAYLQISSLKAEDTAVYYCAREPMDYWGQGTMVTVSS
VL: DVVMTQSPLSLPVTLGQPASISCKSSQSLLDSDGKTYLSWLQQRPGQSPRRLIYLVSKLDSGVPDRFSGSGSGTDFTLKISRVEAEDVGVYYCWQGAHFPLTFGQGTKLEIK
notes: humanized
B6: Hu22F1_HdLa (antibody, V domains shown)
VH: QAQLVQSGAEVKKPGASVKVSCKASGYSFTDYYMNWLRQAPGQGLEWIGDINPKDGDSGYSHKFKGRATLTVDKSTSTVYMELRSLRSEDTAVYYCASGFTTVVARGDYWGQGTTVTVSS
VL: DVVMTQSPLSLPVTLGQPASISCKSSQSLLDSDGKTYLNWLQQRPGQSPRRLIYLVSKLDSGVPDRFSGSGSGTDFTLKISRVEAEDVGVYYCWQGTHFPYTFGGGTKVEIK
B7: Hu22F1_HbLb (antibody, V domains shown)
VH: QVQLVQSGAEVKKPGASVKVSCKASGYSFTDYYMNWVRQAPGQGLEWMGDINPKDGDSGYSHKFKGRVTMTVDKSTSTVYMELSSLRSEDTAVYYCASGFTTVVARGDYWGQGTTVTVSS
VL: DVVMTQSPLSLPVTLGQPASISCKSSQSLLDSDGKTYLNWLQQRPGQSPRRLIYLVSKLDSGFPDRFSGSGSGTDFTLKISRVEAEDVGVYYCWQGTHFPYTFGGGTKVEIK
B8: Hu22F1_HcLb (antibody, V domains shown)
VH: QAQLVQSGAEVKKPGASVKVSCKASGYSFTDYYMNWVRQAPGQGLEWMGDINPKDGDSGYSHKFKGRVTLTVDKSTSTVYMELRSLRSEDTAVYYCASGFTTVVARGDYWGQGTTVTVSS
VL: DVVMTQSPLSLPVTLGQPASISCKSSQSLLDSDGKTYLNWLQQRPGQSPRRLIYLVSKLDSGFPDRFSGSGSGTDFTLKISRVEAEDVGVYYCWQGTHFPYTFGGGTKVEIK
B9: Hu22F1_HdLb (antibody, V domains shown)
VH: QAQLVQSGAEVKKPGASVKVSCKASGYSFTDYYMNWLRQAPGQGLEWIGDINPKDGDSGYSHKFKGRATLTVDKSTSTVYMELRSLRSEDTAVYYCASGFTTVVARGDYWGQGTTVTVSS
VL: DVVMTQSPLSLPVTLGQPASISCKSSQSLLDSDGKTYLNWLQQRPGQSPRRLIYLVSKLDSGFPDRFSGSGSGTDFTLKISRVEAEDVGVYYCWQGTHFPYTFGGGTKVEIK
B10: Hu14E3_HaLb (antibody, IgG1, V domains shown)
VH: QVQLVQSGSELKKPGASVKVSCKASGYTFTTYGMAWMRQAPGQGLEWMGWINTLSGEPTYADDFKGRFVFSLDTSVSTAYLQISSLKAEDTAVYYCAREPMDYWGQGTMVTVSS
VL: DVVMTQSPLSLPVTLGQPASISCKSSQSLLDSDGKTYLSWLQQRPGQSPRRLISLVSKLDSGVPDRFSGSGSGTDFTLKISRVEAEDVGVYYCWQGAHFPLTFGQGTKLEIK
notes: humanized
B11: Hu22F1_HaLb (antibody, V domains shown)
VH: QVQLVQSGAEVKKPGASVKVSCKASGYSFTDYYMNWVRQAPGQGLEWMGDINPKDGDSGYSHKFKGRVTMTRDTSTSTVYMELSSLRSEDTAVYYCASGFTTVVARGDYWGQGTTVTVSS
VL: DVVMTQSPLSLPVTLGQPASISCKSSQSLLDSDGKTYLNWLQQRPGQSPRRLIYLVSKLDSGFPDRFSGSGSGTDFTLKISRVEAEDVGVYYCWQGTHFPYTFGGGTKVEIK
B12: Hu14E3_HbLb (antibody, IgG1, V domains shown)
VH: QIQLVQSGSELKKPGASVKVSCKASGYTFTTYGMAWMRQAPGQGLEWMGWINTLSGEPTYADDFKGRFAFSLDTSVSTAYLQISSLKAEDTAVYYCAREPMDYWGQGTMVTVSS
VL: DVVMTQSPLSLPVTLGQPASISCKSSQSLLDSDGKTYLSWLQQRPGQSPRRLISLVSKLDSGVPDRFSGSGSGTDFTLKISRVEAEDVGVYYCWQGAHFPLTFGQGTKLEIK
notes: humanized
B13: Hu22F1_HaLa (antibody, V domains shown)
VH: QVQLVQSGAEVKKPGASVKVSCKASGYSFTDYYMNWVRQAPGQGLEWMGDINPKDGDSGYSHKFKGRVTMTRDTSTSTVYMELSSLRSEDTAVYYCASGFTTVVARGDYWGQGTTVTVSS
VL: DVVMTQSPLSLPVTLGQPASISCKSSQSLLDSDGKTYLNWLQQRPGQSPRRLIYLVSKLDSGVPDRFSGSGSGTDFTLKISRVEAEDVGVYYCWQGTHFPYTFGGGTKVEIK
notes: humanized 22F1 variant
B14: Hu22F1_HbLa (antibody, V domains shown)
VH: QVQLVQSGAEVKKPGASVKVSCKASGYSFTDYYMNWVRQAPGQGLEWMGDINPKDGDSGYSHKFKGRVTMTVDKSTSTVYMELSSLRSEDTAVYYCASGFTTVVARGDYWGQGTTVTVSS
VL: DVVMTQSPLSLPVTLGQPASISCKSSQSLLDSDGKTYLNWLQQRPGQSPRRLIYLVSKLDSGVPDRFSGSGSGTDFTLKISRVEAEDVGVYYCWQGTHFPYTFGGGTKVEIK

The first test deals with T1, Mouse Gremlin-His (R&D). Description: ELISA, coated mouse gremlin (R&D). The method, then: (§1) Clear polystyrene plates (BEAVER) were coated with 100 μl/well of a […] hGREM1 (ACRO) and mouse gremlin (R&D) in high pH coating buffer overnight at 4° C. Then the plates were washed once on an automatic plate washer using PBS+0.1% Tween 20 (Sigma). 100 μl of block solution consisting of PBS+1% BSA+1% normal goat serum+0.5% Tween 20 (Sigma) was added to each well and incubated at room temperature for 2 hours. Then 100 μl of antibodies in antibody dilution buffer containing PBS+1% BSA+1% normal goat serum+0.01% Tween 20 starting from 2 μg/ml and then serial dilutions were added to each well of the plate and incubated for 1 hours at room temperature. Afterward the plates were washed three times with 200 μl of PBS+0.1% Tween20 followed by adding 100 μl/well 1:10000 Goat anti mouse IgG-HRP (abcam), and incubate for 1 hour at room temperature. They were then washed 3× with PBS+0.1% Tween20. Finally, 100 µl/well of TMB (Pierce) was added to each well and after several minutes add 50 μl of stop solution to each well. The plates were read on a Multiscan FC microplate reader (Thermo Scientific) at […].
By EC50 is commonly meant the midpoint of the concentration-response curve. Higher therefore signals lower potency in that assay. The molecule B1 returned an EC50 of 0.0172 µg/mL.

For the next test, the target named is T2, HGREM1-His (ACRO). The experiment in a line: ELISA, coated hGREM1 (ACRO). As for the experimental part: as §1
(ELISA stands for enzyme-linked immunosorbent assay.)
B1 registered an EC50 of 0.0134 µg/mL.

The target of a further test is T2, HGREM1-His (ACRO). The experiment in a line: ELISA, binding to hGremlin-his.
Molecule B2 showed an EC50 of 0.006 µg/mL.

B3 had an EC50 of 0.312 µg/mL. The same measure, in the same setting: to B4 belongs 0.0061 µg/mL; to B5, 0.0066 µg/mL; to B6, 0.0167 µg/mL.

With B7, the EC50 is 0.094 µg/mL. Molecule B8 returned an EC50 of 0.0435 µg/mL.

Molecule B9 returned an EC50 of 0.0103 µg/mL.

In the case of B10, a half-maximal response (EC50) required 0.0056 µg/mL. In the case of B11, it took 0.117 µg/mL to reach a half-maximal effect (EC50). With B12, the midpoint of the response, the EC50, lay at 0.0062 µg/mL.

As for B13, the EC50 was found to be 1.17 µg/mL. The molecule B14 yielded an EC50 of 1.04 µg/mL.
